Laboratory results taken from patent US20250290928A1, “METHOD, KIT AND DEVICE FOR DETECTING EXTRACELLULAR VESICLES” (priority 2022, published 2025).
No end group written: not given here. *: point of attachment. 5FAM = O=C1OC2(c3ccc(O)cc3Oc3cc(O)ccc32)c2ccc(C(=O)*)cc21; TQ2 = quencher

Tests used:
[1] = biological target: T1, MMP14 in the MDA-MB-231-derived extracellular vesicles (Homo sapiens, UniProt P50281); experiment: Digital detection of MDA-MB-231-derived extracellular vesicles through MMP14 activity in wells (microcompartments); type: biochemical; details: for Extracellular vesicle concentration: at a concentration of x1, 50 fL; for Expected value λ / Number of positives / Positive ratio: Example 38, EV 2.5 μg/mL, reporter 5 μM, 30° C.
T1 construct: in terms of intact MMP14 with a molecular weight of 70 kDa
Protocol: The concentration of the solution is 6.7 μg/mL.
100 μL of the MMP14 detection solution was added to 100 μL of the sample to provide a reaction solution for wells. […] 100 μL of 200 μL of the prepared reaction solution for wells was used in the measurement of MMP14 activity with a 96-well plate.
Next, the wells were filled with the reaction solution by leaving the well array 200 to stand under reduced pressure to degas the space 205. After that, the space 205 was fed with hydrophobic solvents to be sealed. Fluorinated oils AsahiKlin AE-3000 (manufactured by AGC Inc.) and Fomblin Y-25 (manufactured by Solvay S.A.) were used as the hydrophobic solvents. A fluorinated oil Simoa (trademark) SR-X Sealing Oil: 102767 (manufactured by Quanterix Corporation) was further used as another hydrophobic solvent.
Well diameter: 4.25 μm Well depth: 3.25 μm Well capacity: 50 fL Number of wells in array: 239,000 Array range: 3 mm×4 mm
The concentration of the solution is 20 μg/mL. […] The concentration of the solution was set to x1, and 10-fold serial dilution was performed to prepare standard samples with five concentrations.
Next, the wells were filled with the reaction solution by leaving the well array 200 to stand under reduced pressure to degas the space 205. After that, the space 205 was fed with hydrophobic solvents to be sealed.
The concentration of the solution is 20 μg/mL. […] The concentration of the solution was set to x1, and 3-fold serial dilution was performed to prepare standard samples with three concentrations.
The concentration of the solution is 20 μg/mL. […] The concentration of the solution was set to x1, and 2-fold serial dilution was performed to prepare standard samples with four concentrations.
The concentration of the solution is 5 μg/mL.
50 μL of the MMP14 detection solution was added to 50 μL of the sample to provide a reaction solution for wells.
50 μL of each of the MMP14 detection solutions was added to 50 μL of the sample to provide a reaction solution for wells.
The concentration of the solution is 6.7 µg/mL.

[2] = biological target: T1, MMP14 in the MDA-MB-231-derived extracellular vesicles; experiment: Evaluation of MMP14 activity of MDA-MB-231-derived extracellular vesicles with 96-well plate; type: biochemical
Protocol: A relative fluorescence unit difference ΔRFU was calculated by subtracting the measured value of the sample for BG measurement from the measured value of each of the samples.
The concentration of the solution is 41.7 μg/mL. The concentration of the solution was set to x1, and 2-fold serial dilution was performed to prepare standard samples with six concentrations.
50 μL of the MMP14 detection solution was added to 50 μL of each of the samples, a reaction was performed at 37° C., and MMP14 activity was evaluated.
The concentration of the solution is 10 μg/mL.
50 μL of each of the MMP14 detection solutions was added to 50 μL of each of the samples, a reaction was performed at 37° C., and MMP14 activity was evaluated. […]
The concentration of the solution is 20 μg/mL. The concentration of the solution was set to x1, and 3-fold serial dilution was performed to prepare standard samples with three concentrations.
The concentration of the solution is 8 μg/mL.
50 μL of each of the MMP14 detection solutions was added to 50 μL of the sample, a reaction was performed at 37° C., and MMP14 activity was evaluated. […]
50 μL of the MMP14 detection solution was added to 50 μL of each of the samples, a reaction was performed at 30° C., and MMP14 activity was evaluated.
The MMP14 activity of the extracellular vesicles was evaluated with a 96-well plate (137101). A fluorescence intensity was measured with a fluorescence plate reader (Synergy) at 30° C. every 5 minutes for 2 hours. For measurement wavelengths, an excitation wavelength of 545±20 nm and a fluorescence wavelength of 588±20 nm were used. A relative fluorescence unit difference (ΔRFU) was calculated by subtracting the measured value of the sample for BG measurement from the measured value of each of the samples.
50 μL of each of the MMP14 detection solutions was added to 50 μL of each of the samples, a reaction was performed at 30° C., and MMP14 activity was evaluated.

[3] = Example 37, EV 5 μg/mL, reporter 5 μM, buffer (4)
[4] = MP, 1.25 μM with 5 μM Custom #2TF3
[5] = MP, 2.5 μM with 2.5 μM Custom #2TF3

Substance | Expected value λ (×1) ([1]; Example 38, 4 hr) | Extracellular vesicle concentration ([1]; Example 38, 4 hr) | Expected value λ (×1) ([1]; Example 38, 24 hr) | Extracellular vesicle concentration ([1]; Example 38, 24 hr) | Expected value λ ([1]; 4 hr) | Number of positives ([1]; 4 hr) | Positive ratio ([1]; 4 hr) | Expected value λ ([1]; 24 hr) | Number of positives ([1]; 24 hr) | Positive ratio ([1]; 24 hr) | Fluorescence change after 2 hours of reaction at 30° C. [2, 3] | Fluorescence change after 2 hours of reaction at 30° C. [2, 4] | Fluorescence change after 2 hours of reaction at 30° C. [2, 5]
TQ2-LAPLGLQRRK(5-FAM) (TQ2-LAPLGLQRRK(5FAM)) [Custom #11] | 0.5433 | 1.087e+10 mL⁻¹ | 1.166 | 2.3319e+10 mL⁻¹ | 0.1358 | 3,566 | 0.127 | 0.2915 | 7,100 | 0.2529 | 33,665 ΔRFU | 12,156 ΔRFU | 18,065 ΔRFU
TQ2-WYPAGLRMVK(5-FAM) (TQ2-WYPAGLRMVK(5FAM)) [Custom #13] | 0.5455 | 1.091e+10 mL⁻¹ | 1.05 | 2.101e+10 mL⁻¹ | 0.1364 | 3,573 | 0.1275 | 0.2626 | 6,485 | 0.2309 | 19,279 ΔRFU | 7,073 ΔRFU | 9,939 ΔRFU
